In patent US20240263208A1, “CYTOCHROME P450 ENZYME” (HYPHA DISCOVERY LTD., priority 2021, published 2024):
Positions count from the first letter of the chain named. In names and notes the source's numbering stands.

B1: SeuC10M9: P450SeuC10 with L198A mutation, SEQ ID NO: 22 (protein)
chain: MKIGTTHLTRLRGLSMTELTDITGPAAQAETVAFPQDRTCPYHPPTGYDPLRDGRPLSRVTLYDGREVWLVTAQATARALLADPRLSTDRRRDGFPVPTPRFAAGRDRTLALLGLDDPEHHRQRRLLIPSFTLKRATAQRPWIQRIVDELLDAMIARGPVADLVSAFALPVPSMVICELLGVPYADHEFFEEQSRRLARGPTGADTTDARDRLEAYLGDLIDAKAKEAEPGDGILDDLVHNRLRAGELDRSVLVSLAVILLVAGHETTANMISLGTYTLLQHPERLAELRADPSLLPAVVEELLRMLSIAEGLQRLALEDIEIDGITIRAGEGVLFSTSVINRDTAVYEDPDDLDFHRADRHHVAFGFGIHQCLGQNLARAELEIALGSLFTRLPGLRLAAPAEEIPFKPGDTVQGMLELPVTW
modifications: SeuC10M9
B2: SeuC10M13: P450SeuC10 with L198F mutation, SEQ ID NO: 30 (protein)
chain: B1 chain with A198F
modifications: SeuC10M13
B3: SeuC10M20: P450SeuC10 with L198W mutation, SEQ ID NO: 44 (protein)
chain: B1 chain with A198W
modifications: SeuC10M20
B4: M15: P450SeuC10 with L198T mutation, SEQ ID NO: 34 (protein)
chain: B1 chain with A198T
modifications: SeuC10M15
B5: M31: P450SeuC10 with T109F and I259A double mutations, SEQ ID NO: 128 (protein)
chain: B1 chain with T109F, A198L, I259A
modifications: SeuC10M31
B6: M52: P450SeuC10 with T109D mutation, SEQ ID NO: 122 (protein)
chain: B1 chain with T109D, A198L
modifications: SeuC10M52

What was measured:
Type in all cases: biochemical
[1] = Oxidase activity testing against clarithromycin; settings: for Average % conversion: substrate Clarithromycin; for new product at 3.12 minutes (3″-O-demethylclarithromycin) from clarithromycin: chromatographic analysis, FIGS. 5 and 6
Experimental: (§1) Lyophilised material of recombinant P450, ferredoxin and ferredoxin reductase proteins was made as described in Example 4 and reconstituted in high purity water to the original volume. Biocatalysis was performed with shaking incubation at 27° C. in the following conditions: 100 mM potassium phosphate pH 8.0, 5 mM MgCl2 (both present in the reconstituted enzyme preparation) and 0.1 mg/ml substrate compound such as ambroxide (Sigma-Aldrich, UK), carbamazepine (Sigma-Aldrich, UK), diclofenac (Sigma-Aldrich, UK), tivantinib (MedChemtronica, Sweden), clarithromycin (Tokyo Chemical Industry, Japan), sclareol (Sigma-Aldrich, UK), celecoxib (LC Laboratories, USA), buparvaquone (Sigma-Aldrich, UK), BIRB796 (MedChemExpress, USA), vanoxerine (CiVentiChem, USA), valsartan (Tokyo Chemical Industry, Japan), ruxolitinib (LC Laboratories, USA), perindopril (Selleckchem, USA), solifenacin (Key Organics, UK), 7-ethoxycoumarin (Tokyo Chemical Industry, Japan), tofacitinib (LC Laboratories, USA), ebastine (Key Organics, UK), efavirenz (Key Organics, UK), propanalol (Sigma-Aldrich, UK) and tolbutamide (Key Organics, UK).
(§2) Concentrations of P450, ferredoxin and ferredoxin reductase were as extracted (Example 4). Reactions were initiated by addition of 10× stock of cofactor mixture (50 mM G6P, 10 mM NADP+, 10 UN/ml G6PDH) to provide a final volume of e.g., 10 μl to 90 μl for 100 μl total reaction volumes. After 16-20 hours, reactions were extracted with an equal volume of acetonitrile, centrifuged to remove precipitated proteins and conversion assessed by UPLC-MS analysis.
(§3) UPLC Data were Obtained as Follows: • Column: Acquity UPLC BEH Shield RP18 1.7 μm 2.1 mm i.d. 50 mm length • Solvents: H2O, B: Acetonitrile, both with 0.1% Formic acid • Flow rate: 1.0 ml/min • Detector: Waters Acquity UPLC PDA (UV-Vis detection) and Waters Acquity UPLC QDA (MS)
(§4) Representative results for the % conversions of various substrates to products by enzymes with mutations at position T109 or L198 and double mutants at T109 and 1129/L198 are shown in Table 4 below.

[2] = Oxidase activity testing against tolbutamide; settings: substrate Tolbutamide
Experimental: as §1, §2, §3, §4

[3] = Oxidase activity testing against solifenacin; settings: substrate Solifenacin
Experimental: as §1, §2, §3, §4

[4] = Oxidase activity testing against 7-ethoxycoumarin; settings: substrate 7-ethoxycoumarin
Experimental: as §1, §2, §3, §4

[5] = Oxidase activity testing against propanalol; settings: substrate Propanalol
Experimental: as §1, §2, §3, §4

[6] = Oxidase activity testing against vanoxerine; settings: substrate Vanoxerine
Experimental: as §1, §2, §3, §4

[7] = Oxidase activity testing against buparvaquone; settings: substrate Buparvaquone
Experimental: as §1, §2, §3, §4

[8] = Oxidase activity testing against BIRB796; settings: substrate BIRB796
Experimental: as §1, §2, §3, §4

[9] = Oxidase activity testing against perindopril; settings: substrate Perindopril
Experimental: as §1, §2, §3, §4

[10] = Oxidase activity testing against efavirenz; settings: substrate Efavirenz
Experimental: as §1, §2, §3, §4

[11] = Oxidase activity testing against ruxolitinib; settings: substrate Ruxolitinib
Experimental: as §1, §2, §3, §4

[12] = Oxidase activity testing against ebastine; settings: for Average % conversion: substrate Ebastine
Experimental: as §1, §2, §3, §4

[13] = Oxidase activity testing against celecoxib; settings: substrate Celecoxib
Experimental: as §1, §2, §3, §4

[14] = Oxidase activity testing against tofacitinib; settings: substrate Tofacitinib
Experimental: as §1, §2, §3, §4

[15] = Oxidase activity testing against sclareol; settings: for Average % conversion: substrate Sclareol, UPLC-MS UV or MS peak areas
Experimental: as §1, §2, §3, §4

[16] = Oxidase activity testing against carbamazepine; settings: for +16 Da (1.18 min) 253 m/z: 2-hydroxycarbamazepine; for +16 Da (1.18 min) 253 m/z / +16 Da (1.14 min) 253 m/z / Parent (1.31 min) 237 m/z: relative MS peak area; for +16 Da (1.14 min) 253 m/z: carbamazepine epoxide; for reaction products from carbamazepine (in words): new product at 1.18 minutes identified as 2-hydroxycarbamazepine, epoxide at 1.14 minutes; for Parent (1.31 min) 237 m/z: remaining carbamazepine, 0.1 mg/ml, 27° C., 16-20 hours; for Average % conversion: substrate carbamazepine, relative MS peak areas
Experimental: as §1, §2, §3
To confirm the identities of reaction products where known, their chromatographic retention time, mass and ultraviolet spectra were compared with those of authentic metabolite standards.
Representative results for the % conversions of carbamazepine to oxidised (+16 Da) products for single point mutants at position L198 are shown in Table 3 below.

[17] = Oxidase activity testing against valsartan; settings: substrate Valsartan
Experimental: as §1, §2, §3, §4

| Molecule | Average % conversion ([1]; Batch 1) [%] | Average % conversion ([2]; Batch 1) [%] | Average % conversion ([3]; Batch 1) [%] | Average % conversion ([4]; Batch 1) [%] | Average % conversion ([5]; Batch 1) [%] | Average % conversion ([6]; Batch 1) [%] | Average % conversion ([7]; Batch 1) [%] | Average % conversion ([8]; Batch 1) [%] | Average % conversion ([9]; Batch 1) [%] | Average % conversion ([10]; Batch 1) [%] | Average % conversion ([11]; Batch 1) [%] | Average % conversion ([12]; Batch 1) [%] | Average % conversion ([13]; Batch 1) [%] | Average % conversion ([14]; Batch 1) [%] | Average % conversion ([15]; Batch 1) [%] | +16 Da (1.18 min) 253 m/z [16] [%] | +16 Da (1.14 min) 253 m/z [16] [%] | reaction products from carbamazepine (in words) [16] | Parent (1.31 min) 237 m/z [16] [%] | Average % conversion [16] [%] | further results |
| --- | --- | --- | --- | --- | --- | --- | --- | --- | --- | --- | --- | --- | --- | --- | --- | --- | --- | --- | --- | --- | --- |
| B1 | 0 | 14.7 | 0.8 | 10.7 | 0 | 23 | 1.2 | 10 | 15.7 | 3.1 | 55.1 | 25.1 | 2.6 | 6.2 | 75.2 | 1.1 | 15.8 | produce a new product | 83.1 | 16.9 | conversion of ebastine compared to wild-type (in words) [12]: significantly increased conversion; conversion of sclareol compared to wild-type (in words) [15]: significantly increased conversion; Average % conversion ([17]; Batch 1): 6.9% |
| B2 | 0 | 27.9 | 0.8 | 31.2 | 0 | 29.4 | 39.1 | 54.6 | 38.2 | 0 | 98.1 | 14.7 | 26.8 | 32.2 | 41.3 | 3.1 | 42.3 | produce a new product | 54.6 | 45.4 | Average % conversion ([17]; Batch 1): 12% |
| B3 | 0 | 13.7 | 0.6 | 11.4 | 0 | 29.4 | 1.7 | 45.3 | 16.5 | 0 | 42.7 | 19.2 | 6.9 | 5.9 | 0 | 3.5 | 6.8 | produce a new product | 89.7 | 10.3 | Average % conversion ([17]; Batch 1): 25% |
| B4 |  |  |  |  |  |  |  |  |  |  |  |  |  |  |  |  |  |  |  |  | new product at 3.12 minutes (3″-O-demethylclarithromycin) from clarithromycin [1]: not observed; Average % conversion ([1]; Batch 2): 0%; Average % conversion ([2]; Batch 2): 28.3%; Average % conversion ([3]; Batch 2): 6%; Average % conversion ([4]; Batch 2): 14.7%; Average % conversion ([5]; Batch 2): 0%; Average % conversion ([6]; Batch 2): 41%; Average % conversion ([7]; Batch 2): 0%; Average % conversion ([8]; Batch 2): 34.4%; Average % conversion ([9]; Batch 2): 35.4%; Average % conversion ([10]; Batch 2): 4.3%; Average % conversion ([11]; Batch 2): 100%; Average % conversion ([12]; Batch 2): 0.5%; Average % conversion ([13]; Batch 2): 7.2%; Average % conversion ([14]; Batch 2): 32.3%; Average % conversion ([15]; Batch 2): 61%; Average % conversion ([17]; Batch 2): 20.9% |
| B5 |  |  |  |  |  |  |  |  |  |  |  |  |  |  |  |  |  |  |  |  | new product at 3.12 minutes (3″-O-demethylclarithromycin) from clarithromycin [1]: not observed; Average % conversion ([1]; Batch 2): 0.7%; Average % conversion ([2]; Batch 2): 2.9%; Average % conversion ([3]; Batch 2): 2.2%; Average % conversion ([4]; Batch 2): 2.9%; Average % conversion ([5]; Batch 2): 0%; Average % conversion ([6]; Batch 2): 11.4%; Average % conversion ([7]; Batch 2): 0%; Average % conversion ([8]; Batch 2): 0%; Average % conversion ([9]; Batch 2): 14.6%; Average % conversion ([10]; Batch 2): 4.1%; Average % conversion ([11]; Batch 2): 46.9%; Average % conversion ([12]; Batch 2): 0%; Average % conversion ([13]; Batch 2): 0.4%; Average % conversion ([14]; Batch 2): 8.2%; Average % conversion ([15]; Batch 2): 1.3%; Average % conversion ([17]; Batch 2): 0.6% |
| B6 |  |  |  |  |  |  |  |  |  |  |  |  |  |  |  |  |  |  |  |  | Average % conversion ([1]; Batch 2): 1%; Average % conversion ([2]; Batch 2): 26.3%; Average % conversion ([3]; Batch 2): 17.2%; Average % conversion ([4]; Batch 2): 17.3%; Average % conversion ([5]; Batch 2): 0%; Average % conversion ([6]; Batch 2): 65%; Average % conversion ([7]; Batch 2): 24.8%; Average % conversion ([8]; Batch 2): 13%; Average % conversion ([9]; Batch 2): 37.9%; Average % conversion ([10]; Batch 2): 0%; Average % conversion ([11]; Batch 2): 87.7%; Average % conversion ([12]; Batch 2): 3.1%; Average % conversion ([13]; Batch 2): 29.7%; Average % conversion ([14]; Batch 2): 38.2%; Average % conversion ([15]; Batch 2): 25.4%; Average % conversion ([17]; Batch 2): 16.1% |
